# Laboratory results reported in the RNAGym collection of RNA variant scans (doi:10.1073/pnas.2313332121).
# Variants at the floor of the assay were thinned out.
# B1: TPR 5TU (parent)
# chain: GGAUCUUCUCGAUCUAACAAAAAAGACAAAUCUGCCACAAAGCUUGAGAGCAUCUUCGGAUGCAGAGGCGGCAGCCUUCGGUGGCGCGAUAGCGCCAACGUUCUCAACUAUGACACGCAAAACGCGUGCUCCGUUGAAUGGAGUUUAUCAUG
# Variants of: B1
# Assay: polymerase ribozyme fitness, log enrichment relative to wild type (log ratio); higher = more active; in vitro selection for triplet polymerase activity
# How it was run: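 Frozen incubation at −7 °C formed the core of a single, triplicate in vitro selection round applied to PCR-built, transcribed mutant libraries of each subunit of a heterodimeric triplet polymerase ribozyme. Extended constructs were gel-excised, captured with streptavidin beads and amplified by RT-PCR, and input and output libraries were Illumina-sequenced with a filter of ≥10 input reads and ≥1 read per output. Fitness is the logarithm of genotype enrichment relative to wild-type enrichment, with inverse-variance-weighted replicate averaging, and the logarithm is base 2.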
row,Variant,polymerase ribozyme fitness (log ratio)
1,A52G C85U U104G,-0.901
2,A30U G46A U55A G74A U145A,≤ -4.2
3,C54G G86A C129G,-3.8
4,A16G A37C U55G U56A G59A G83A C87U,-3.9
5,A39U G80U,-3.44
6,U6G G50U G83C A120U,-0.29
7,A20C A24U C57U,-0.111
8,G11A C105U,-1.12
9,C18A A20U A47G A52C G65A G83U U101C G136U,≤ -4.2
10,C35U G92A,-3.33
11,U6A C57U A98G,-0.654
12,A16U U31G G50A G58A C85U U104G A106U U134A,≤ -4.2
13,C18U C54U C57A G83U,-1.15
14,C5U U7G C14G A21C U56G C57A G58C C103A A142U U145C,≤ -4.2
15,C51U,-0.394
16,G83A A89G C116U,-1.69
17,C32U C54G C85A A119U G126A C149A,≤ -4.2
18,U101C A106G,0.00894
19,C85G U104C,-2.69
20,A26C G94C,-1.54
21,C79U G94C,-3.64

row,Variant,polymerase ribozyme fitness (log ratio)
1,G68A C93G,≤ -4.2
2,A47U A60U C95U G136A,-1.58
3,U31G C38A U45A G83C C95A,≤ -4.2
4,A52C G83A,-2.46
5,A73U G81A A122U,-0.858
6,C5G U44A G59A A121C A122G,≤ -4.2
7,A52U A107C,≤ -4.2
8,U15G G50U C93A G143A,-3.35
9,A52C C76U U101G,-4.01
10,A30C G71U A98G C103G,≤ -4.2
11,A29G A52C G74A G92U C95G,≤ -4.2
12,C87A A89C G124C U148A,≤ -4.2
13,C32U G68U C87G C99G,-4.11
14,U7C A113G U139C,≤ -4.2
15,U56A A60G C79G A119C A121U,-3.78
16,C38A A147C,-1.26
17,U6A C75U C93G C131G,≤ -4.2
18,A40C C87G G94U C95G C118G,≤ -4.2
19,C32G G81A,-4.14
20,G83U A91U A120U A138U,≤ -4.2
21,A24U A47U G50A G59U A60G C87U C103G U109A A110G,-4.01

row,Variant,polymerase ribozyme fitness (log ratio)
1,A37U U53A G68A A98U,≤ -4.2
2,A19G A52U G83A A98G C118G G124A U134C G140U,≤ -4.2
3,A19G A52G G58U A64G U139A,≤ -4.2
4,G50C U56A C57G A66G C95A C99U A113G G140A,-4.04
5,C63G G70A,-3.15
6,A106G C118A,-0.47
7,G92A C114U,-3.92
8,G11U C14G U127G,≤ -4.2
9,A41U C54U,-0.75
10,C57U A107C,-3.3
11,A41C C93G C105U,-2.84
12,U56G G62U C85A A119C C131U,-1.78
13,G42C G46C G70C C95G U101G C129A C132G,≤ -4.2
14,C5G U55A C85U C116U,-1.06
15,A29G C75U C96U U139G,≤ -4.2
16,A24U C57G G92U A147U,-0.341
17,U53A C54G C95A,-1.73
18,A19C G65U A73U G88A C114A U148C,≤ -4.2
19,C27A U44A U55A A66G C87U C95G A110G C114U U144A,≤ -4.2
20,C38A C75G C96G,≤ -4.2
21,C54A C85U C125G,-1.96

row,Variant,polymerase ribozyme fitness (log ratio)
1,C57U G81C C95A A122C,-0.59
2,C57G G59A A73U G88C,≤ -4.2
3,A17G A23U C79G,≤ -4.2
4,U7C A16U G50A C54A C57A C72G C85G A98U G141A,≤ -4.2
5,C14U A40U A41U A49U A73G G92A C125U,-4.11
6,G86U A122G,-2.43
7,U53A C105A,-2.83
8,C51U U127A A142G,-4.07
9,A12U G126A,-0.204
10,G88A A150C,≤ -4.2
11,A97U U135G G140C,≤ -4.2
12,A41C A66U U135A,≤ -4.2
13,U56A C87U C131G,-3.21
14,C54A C85U C108U,≤ -4.2
15,U45A,-2.1
16,G34C C57U G80C C149U,≤ -4.2
17,C36A G74C,≤ -4.2
18,G58A U146C,0.448
19,A41C G92U U145A A150C,-2.83
20,C14U C18A U61C U139G,-4.16
21,C96U U127C,-1.34
